{"source": "paper PMC5981469", "data": [{"biological_target": "envelope protein domain III from dengue virus serotype 2 (DENV2 DIII) (dengue virus serotype 2)", "experiment": "ITC", "units": {"Kd": "nM", "other": "kcal/mol", "stoichiometry N": "sites"}, "values": [{"substance": "scFv4E11 bearing the AlaH55Glu mutation", "Kd": 12.8, "other": -1.89, "stoichiometry N": 1.04}, {"substance": "single-chain variable fragment of murine monoclonal antibody 4E11 (scFv4E11), wild type", "Kd": 30.7, "other": -2.09, "stoichiometry N": 0.96}, {"substance": "scFv513 bearing the single mutation GluH55Ala", "Kd": 28.7, "other": -1.78, "stoichiometry N": 0.99}, {"substance": "single-chain variable fragment of humanized monoclonal antibody 513 (scFv513), wild type", "Kd": 1.64, "other": -4.28, "stoichiometry N": 1.01}]}]}
